The values below come from the Immune Epitope Database (IEDB).

The target in assay [1] is HLA-A*69:01. The experiment in a line: IEDB peptide-MHC binding, purified MHC/direct/fluorescence; filed as Kd, often an IC50 or EC50 that approximates it; ≥ and ≤ were set here for values at or beyond the usual limits of such assays.
The target in another assay is HLA-B*07:02. The description is as above.
A further assay addresses HLA-A*11:01. The description is as above.
The target of assay [2] is HLA-B*08:01. The assay is described as above.
A further assay concerns the target HLA-B*40:01. The assay is described as above.
A further assay addresses HLA-B*58:01. Described as above.
For assay [3], the target named is HLA-A*26:01. The assay is described as above.
The target of the next assay is HLA-B*44:02. Described as above.
Another assay deals with HLA-A*01:01. The assay is described as above.
The target in the next assay is HLA-B*27:05. Described as above.
The next assay has as its target HLA-A*30:01. The description is as above.
In assay [4] the target is HLA-A*24:03. Described as above.
Assay [5] addresses HLA-A*03:01. The assay is described as above.
In assay [6] the target is HLA-A*02:01. The assay is described as above.
The target of assay [7] is HLA-B*15:01. The description is as above.
Assay [8] has as its target HLA-B*46:01. Described as above. To be noted: source organism: Yellow fever virus.
The target in assay [9] is HLA-B*57:01. The assay is described as above. To be noted: source organism: Yellow fever virus.
The next assay has as its target HLA-B*15:09. Described as above. Particulars: source organism: Yellow fever virus.
Assay [10] concerns the target HLA-B*08:01. The experiment in a line: IEDB peptide-MHC binding, purified MHC/competitive/fluorescence; filed as Kd, often an IC50 or EC50 that approximates it; ≥ and ≤ were set here for values at or beyond the usual limits of such assays. Particulars: source organism: Salmonella enterica subsp. enterica serovar Typhi.
In another assay the target is HLA-B*39:01. The description is as above.
The target in assay [11] is HLA-A*02:01. Described as above.
The next assay addresses HLA-A*02:12. Described as above. To be noted: source organism: Vibrio antiquarius.
In assay [12] the target is HLA-A*69:01. The assay is described as above. To be noted: source organism: Vibrio antiquarius.
A further assay deals with HLA-A*02:16. The assay is described as above.
A further assay deals with HLA-A*68:02. Described as above. Particulars: source organism: Vibrio antiquarius.
Assay [13] has as its target HLA-A*26:01. Described as above. To be noted: source organism: Vibrio antiquarius.
The target in the next assay is HLA-B*27:03. The assay is described as above. Particulars: source organism: Vibrio antiquarius.
In assay [14] the target is HLA-B*46:01. Described as above. Particulars: source organism: Vibrio antiquarius.
Another assay addresses HLA-A*02:19. The description is as above. To be noted: source organism: Vibrio antiquarius.
In a further assay the target is HLA-A*02:03. Described as above. To be noted: source organism: Vibrio antiquarius.
For the next assay, the target named is HLA-B*51:01. Described as above. To be noted: source organism: Vibrio antiquarius.
Assay [15] deals with HLA-B*57:01. The assay is described as above. Particulars: source organism: Vibrio antiquarius.
For assay [16], the target named is HLA-A*24:03. Described as above. To be noted: source organism: Vibrio antiquarius.
Assay [17] deals with HLA-A*03:01. Described as above. To be noted: source organism: Vibrio antiquarius.
In assay [18] the target is HLA-B*15:01. The description is as above. To be noted: source organism: Vibrio antiquarius.
In a further assay the target is HLA-B*18:01. Described as above. To be noted: source organism: Vibrio antiquarius.
The target in the next assay is HLA-B*08:02. The experiment in a line: IEDB peptide-MHC binding, purified MHC/direct/fluorescence; filed as Kd, often an IC50 or EC50 that approximates it; ≥ and ≤ were set here for values at or beyond the usual limits of such assays. To be noted: source organism: Escherichia coli O157:H7 str. EC869.
The target of another assay is HLA-A*31:01. The assay is described as above. To be noted: source organism: Pseudomonas aeruginosa.
Where [19] appears, read: source organism: Yersinia enterocolitica.
The mark [20] stands for this setting: source organism: Yellow fever virus.
The mark [21] stands for this setting: source organism: Salmonella enterica subsp. enterica serovar Typhi.
The mark [22] stands for this setting: source organism: Vibrio antiquarius.
Setting [23] is: source organism: Toxoplasma gondii ME49.
[24] abbreviates: source organism: Pseudomonas aeruginosa.
Where [25] appears, read: source organism: Pseudomonas aeruginosa UCBPP-PA14.

One may read the Kd as the constant that tells how readily two partners part at equilibrium. Consider GYGRVNAGK, for which the Kd was at least 20 µM with HLA-A*69:01 [1] (setting [19]); at least 20 µM with HLA-B*07:02 (setting [19]); 6.54 µM in the assay with HLA-A*11:01 (setting [19]); at least 20 µM with HLA-B*08:01 [2] (setting [19]); at least 20 µM with HLA-B*40:01 (setting [19]); at least 20 µM with HLA-B*58:01 (setting [19]). Besides, the Kd was at least 20 µM with HLA-A*26:01 [3] (setting [19]); at least 20 µM with HLA-B*44:02 (setting [19]); at least 20 µM with HLA-A*01:01 (setting [19]); at least 20 µM in the assay with HLA-B*27:05 (setting [19]); 9.1 µM with HLA-A*30:01 (setting [19]); 10.3 µM in the assay with HLA-A*24:03 [4] (setting [19]). In addition, the Kd with HLA-A*03:01 [5] (setting [19]), with HLA-A*02:01 [6] (setting [19]) and with HLA-B*15:01 [7] (setting [19]) was at least 20 µM each time.

Consider IQYVIRAQL, for which the Kd with HLA-B*58:01 (setting [20]), with HLA-B*44:02 (setting [20]), with HLA-B*46:01 [8], in the assay with HLA-A*01:01 (setting [20]), with HLA-B*27:05 (setting [20]) and in the assay with HLA-B*57:01 [9] was at least 20 µM throughout. For the same sequence, the Kd with HLA-B*15:09 and with HLA-A*03:01 [5] (setting [20]) was at least 20 µM each time.

For WLMKYPYQL, the Kd with HLA-B*08:01 [10] is 0.0886 µM; with HLA-B*39:01 (setting [21]) it was at most 0.001 µM; with HLA-A*02:01 [11] (setting [21]), 0.0002 µM.

For the sequence FDLFGITLY, the Kd in the assay with HLA-A*02:12, in the assay with HLA-A*69:01 [12], in the assay with HLA-A*02:16 (setting [22]), with HLA-A*68:02, with HLA-A*26:01 [13] and with HLA-B*27:03 was at least 20 µM throughout. Also, the Kd with HLA-B*46:01 [14], in the assay with HLA-A*02:19, in the assay with HLA-A*02:03, in the assay with HLA-B*51:01, with HLA-B*57:01 [15] and with HLA-A*24:03 [16] was at least 20 µM in each case. Besides, the Kd in the assay with HLA-B*39:01 (setting [22]) is at least 20 µM; with HLA-A*03:01 [17], at least 20 µM; in the assay with HLA-A*02:01 [11] (setting [22]) it was at least 20 µM; with HLA-B*15:01 [18], at least 20 µM; in the assay with HLA-B*18:01 it was 0.279 µM.

Sequence RMKMRRPHL yielded a Kd in the assay with HLA-B*08:02 of 2.36 µM.

As for FGGGPWWEV, the Kd with HLA-A*02:16 (setting [23]) stood at 0.0084 µM; with HLA-A*02:01 [11] (setting [23]) it was 0.0122 µM.

For the sequence DLPPAIAAE, the Kd in the assay with HLA-A*69:01 [1] (setting [24]), with HLA-B*07:02 (setting [24]), in the assay with HLA-A*11:01 (setting [24]), with HLA-B*08:01 [2] (setting [24]), with HLA-B*40:01 (setting [24]) and with HLA-B*58:01 (setting [24]) was at least 20 µM in each case. In addition, the dissociation constant (Kd) in the assay with HLA-A*26:01 [3] (setting [24]) was 1.95 µM; with HLA-A*31:01 it was at least 20 µM; with HLA-A*01:01 (setting [24]), at least 20 µM; with HLA-B*27:05 (setting [24]), at least 20 µM; with HLA-A*30:01 (setting [24]) it was 12.6 µM; with HLA-A*03:01 [5] (setting [24]), at least 20 µM. Also, the Kd is at least 20 µM with HLA-A*02:01 [6] (setting [24]) and at least 10 µM with HLA-B*15:01 [7] (setting [24]).

As to RTGTRLLGR, the Kd is at least 20 µM with HLA-A*69:01 [1] (setting [25]); at least 20 µM with HLA-B*07:02 (setting [25]); 0.197 µM with HLA-A*11:01 (setting [24]); at least 20 µM with HLA-B*08:01 [2] (setting [25]); at least 20 µM with HLA-B*40:01 (setting [25]); at least 20 µM with HLA-B*58:01 (setting [25]). Besides, the Kd was at least 20 µM with HLA-A*26:01 [3] (setting [25]); 0.052 µM in the assay with HLA-A*31:01; at least 20 µM with HLA-A*01:01 (setting [25]); at least 20 µM with HLA-B*27:05 (setting [25]); 12 µM with HLA-A*30:01 (setting [24]); at least 20 µM in the assay with HLA-A*24:03 [4] (setting [25]). Further, the Kd with HLA-A*03:01 [5] (setting [24]) was 0.252 µM; in the assay with HLA-A*02:01 [6] (setting [25]), at least 20 µM; with HLA-B*15:01 [7] (setting [25]), at least 20 µM.
